Measured values published in paper doi:10.1101/2025.05.06.651509 (bioRxiv, 2025).

Molecular target: the molecule itself
Assay: MST

| Protein | binding result |
| --- | --- |
| recombinant TSC22D4 (natural protein, human, UniProt Q9Y3Q8 1-395, looked up, RED-tris-NTA dye on the His tag (labelled copy only)) MSGGKKKSSFQITSVTTDYEGPGSPGASDPPTPQPPTGPPPRLPNGEPSPDPGGKGTPRNGSPPPGAPSSRFRVVKLPHGLGEPYRRGRWTCVDVYERDLEPHSFGGLLEGIRGASGGAGGRSLDSRLELASLGLGAPTPPSGLSQGPTSWLRPPPTSPGPQARSFTGGLGQLVVPSKAKAEKPPLSASSPQQRPPEPETGESAGTSRAATPLPSLRVEAEAGGSGARTPPLSRRKAVDMRLRMELGAPEEMGQVPPLDSRPSSPALYFTHDASLVHKSPDPFGAVAAQKFSLAHSMLAISGHLDSDDDSGSGSLVGIDNKIEQAMDLVKSHLMFAVREEVEVLKEQIRELAERNAALEQENGLLRALASPEQLAQLPSSGVPRLGPPAPNGPSV | binds |
| TSC22D4 I322W (natural protein, human, UniProt Q9Y3Q8 1-395, looked up) MSGGKKKSSFQITSVTTDYEGPGSPGASDPPTPQPPTGPPPRLPNGEPSPDPGGKGTPRNGSPPPGAPSSRFRVVKLPHGLGEPYRRGRWTCVDVYERDLEPHSFGGLLEGIRGASGGAGGRSLDSRLELASLGLGAPTPPSGLSQGPTSWLRPPPTSPGPQARSFTGGLGQLVVPSKAKAEKPPLSASSPQQRPPEPETGESAGTSRAATPLPSLRVEAEAGGSGARTPPLSRRKAVDMRLRMELGAPEEMGQVPPLDSRPSSPALYFTHDASLVHKSPDPFGAVAAQKFSLAHSMLAISGHLDSDDDSGSGSLVGIDNKWEQAMDLVKSHLMFAVREEVEVLKEQIRELAERNAALEQENGLLRALASPEQLAQLPSSGVPRLGPPAPNGPSV | binds |
